The test system of the data set is MBP-ComGC (soluble globular head) (Streptococcus sanguinis 2908?). Briefly: EMSA. The settings on record: 2.5 mM Mg2+; 25 mM Tris-HCl pH 8, 2.5 mM MgCl2, 50 mM NaCl, room temperature 30 min, 120 ng pUC19 in 10 uL; 0.8% agarose in TAE. On the technique in general: In EMSA bound probe runs differently from free probe, usually more slowly.

Some results are limits rather than exact numbers.

For pUC19 plasmid, the binding is above 10 µM.
